From the supplement of paper PMC5998384

Legend:
HeLa Kyoto [1] = experiment: solubility in G1/S (NP-40 vs SDS abundance) (log2 ratio); higher = more soluble; details: cell cycle stage: G1/S
HeLa Kyoto [2] = experiment: melting temperature (median over replicates), in situ; higher = more thermally stable
HeLa Kyoto [3] = experiment: thermal stability score vs G1/S (z-score of summed log2 fold changes over temperatures); higher = more thermally stable than in G1/S
HeLa Kyoto [4] = experiment: solubility change mitosis vs G1/S (difference of NP-40 vs SDS log2 ratios) (log2 ratio difference); higher = more soluble in mitosis
[5] = cell cycle stage: early G1 (4.5 h after nocodazole release)
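Wherever melting temperature (median over replicates), in situ is given: HeLa Kyoto cells synchronized by double thymidine or nocodazole block, proteins quantified by TMT10plex mass spectrometry, three independent biological replicates.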
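Wherever solubility change mitosis vs G1/S (difference of NP-40 vs SDS log2 ratios) is given: synchronized HeLa Kyoto cells (double thymidine block for G1/S, nocodazole release for mitosis), protein amounts in NP-40 versus SDS lysates quantified by mass spectrometry, three biological replicates.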
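Wherever solubility in G1/S (NP-40 vs SDS abundance) is given: HeLa Kyoto cells arrested at G1/S by double thymidine block, proteins quantified by TMT10plex mass spectrometry in mild NP-40 versus SDS extracts, three biological replicates.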
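Wherever thermal stability score vs G1/S (z-score of summed log2 fold changes over temperatures) is given: synchronized HeLa Kyoto cells, proteins quantified by TMT10plex mass spectrometry, three biological replicates, mitosis taken 0.5 h after nocodazole release, G1/S directly after double thymidine block.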

Row | Sequence | solubility in G1/S (log2) (HeLa Kyoto [1]) | melting temperature (HeLa Kyoto [2]; cell cycle stage: G1/S) [°C] | melting temperature (HeLa Kyoto [2]; cell cycle stage: mitosis) [°C] | thermal stability score (HeLa Kyoto [3]; [5]) | thermal stability score (HeLa Kyoto [3]; cell cycle stage: mitosis) | solubility change mitosis (log2) (HeLa Kyoto [4])
1 | MDVRRLKVNELREELQRRGLDTRGLKAELAERLQAALEAEEPDDERELDADDEPGRPGHINEEVETEGGSELEGTAQPPPPGLQPHAEPGGYSGPDGHYAMDNITRQNQFYDTQVIKQENESGYERRPLEMEQQQAYRPEMKTEMKQGAPTSFLPPEASQLKPDRQQFQSRKRPYEENRGRGYFEHREDRRGRSPQPPAEEDEDDFDDTLVAIDTYNCDLHFKVARDRSSGYPLTIEGFAYLWSGARASYGVRRGRVCFEMKINEEISVKHLPSTEPDPHVVRIGWSLDSCSTQLGEEPFSYGYGGTGKKSTNSRFENYGDKFAENDVIGCFADFECGNDVELSFTKNGKWMGIAFRIQKEALGGQALYPHVLVKNCAVEFNFGQRAEPYCSVLPGFTFIQHLPLSERIRGTVGPKSKAECEILMMVGLPAAGKTTWAIKHAASNPSKKYNILGTNAIMDKMRVMGLRRQRNYAGRWDVLIQQATQCLNRLIQIAARKKRNYILDQTNVYGSAQRRKMRPFEGFQRKAIVICPTDEDLKDRTIKRTDEEGKDVPDHAVLEMKANFTLPDVGDFLDEVLFIELQREEADKLVRQYNEEGRKAGPPPEKRFDNRGGGGFRGRGGGGGFQRYENRGPPGGNRGGFQNRGGGSGGGGNYRGGFNRSGGGGYSQNRWGNNNRDNNNSNNRGSYNRAPQQQPPPQQPPPPQPPPQQPPPPPSYSPARNPPGASTYNKNSNIPGSSANTSTPTVSSYSPPQPSYSQPPYNQGGYSQGYTAPPPPPPPPPAYNYGSYGGYNPAPYTPPPPPTAQTYPQPSYNQYQQYAQQWNQYYQNQGQWPPYYGNYDYGSYSGNTQGGTSTQ [HNRNPUL1] | -0.152 | 46.9 | 49.2 | 3.72 | 6.44 | -0.0379
2 | MDWGTELWDQFEVLERHTQWGLDLLDRYVKFVKERTEVEQAYAKQLRSLVKKYLPKRPAKDDPESKFSQQQSFVQILQEVNDFAGQRELVAENLSVRVCLELTKYSQEMKQERKMHFQEGRRAQQQLENGFKQLENSKRKFERDCREAEKAAQTAERLDQDINATKADVEKAKQQAHLRSHMAEESKNEYAAQLQRFNRDQAHFYFSQMPQIFDKLQDMDERRATRLGAGYGLLSEAELEVVPIIAKCLEGMKVAANAVDPKNDSHVLIELHKSGFARPGDVEFEDFSQPMNRAPSDSSLGTPSDGRPELRGPGRSRTKRWPFGKKNKPRPPPLSPLGGPVPSALPNGPPSPRSGRDPLAILSEISKSVKPRLASFRSLRGSRGTVVTEDFSHLPPEQQRKRLQQQLEERSRELQKEVDQREALKKMKDVYEKTPQMGDPASLEPQIAETLSNIERLKLEVQKYEAWLAEAESRVLSNRGDSLSRHARPPDPPASAPPDSSSNSASQDTKESSEEPPSEESQDTPIYTEFDEDFEEEPTSPIGHCVAIYHFEGSSEGTISMAEGEDLSLMEEDKGDGWTRVRRKEGGEGYVPTSYLRVTLN [TRIP10] | 0.397 | 50.7 | 49.9 | -0.196 | -0.283 | -0.00359
3 | MEAADASRSNGSSPEARDARSPSGPSGSLENGTKADGKDAKTTNGHGGEAAEGKSLGSALKPGEGRSALFAGNEWRRPIIQFVESGDDKNSNYFSMDSMEGKRSPYAGLQLGAAKKPPVTFAEKGELRKSIFSESRKPTVSIMEPGETRRNSYPRADTGLFSRSKSGSEEVLCDSCIGNKQKAVKSCLVCQASFCELHLKPHLEGAAFRDHQLLEPIRDFEARKCPVHGKTMELFCQTDQTCICYLCMFQEHKNHSTVTVEEAKAEKETELSLQKEQLQLKIIEIEDEAEKWQKEKDRIKSFTTNEKAILEQNFRDLVRDLEKQKEEVRAALEQREQDAVDQVKVIMDALDERAKVLHEDKQTREQLHSISDSVLFLQEFGALMSNYSLPPPLPTYHVLLEGEGLGQSLGNFKDDLLNVCMRHVEKMCKADLSRNFIERNHMENGGDHRYVNNYTNSFGGEWSAPDTMKRYSMYLTPKGGVRTSYQPSSPGRFTKETTQKNFNNLYGTKGNYTSRVWEYSSSIQNSDNDLPVVQGSSSFSLKGYPSLMRSQSPKAQPQTWKSGKQTMLSHYRPFYVNKGNGIGSNEAP [TRIM29] | -0.308 | 50.6 | 50.9 | -0.827 | -1.46 | 0.303
4 | MEAARPPPTAGKFVVVGGGIAGVTCAEQLATHFPSEDILLVTASPVIKAVTNFKQISKILEEFDVEEQSSTMLGKRFPNIKVIESGVKQLKSEEHCIVTEDGNQHVYKKLCLCAGAKPKLICEGNPYVLGIRDTDSAQEFQKQLTKAKRIMIIGNGGIALELVYEIEGCEVIWAIKDKAIGNTFFDAGAAEFLTSKLIAEKSEAKIAHKRTRYTTEGRKKEARSKSKADNVGSALGPDWHEGLNLKGTKEFSHKIHLETMCEVKKIYLQDEFRILKKKSFTFPRDHKSVTADTEMWPVYVELTNEKIYGCDFIVSATGVTPNVEPFLHGNSFDLGEDGGLKVDDHMHTSLPDIYAAGDICTTSWQLSPVWQQMRLWTQARQMGWYAAKCMAAASSGDSIDMDFSFELFAHVTKFFNYKVVLLGKYNAQGLGSDHELMLRCTKGREYIKVVMQNGRMMGAVLIGETDLEETFENLILNQMNLSSYGEDLLDPNIDIEDYFD [PYROXD1] | -0.102 | 49.6 | 49.9 | -0.128 | -0.037 | -0.158
5 | MEADKDDTQQILKEHSPDEFIKDEQNKGLIDEITKKNIQLKKEIQKLETELQEATKEFQIKEDIPETKMKFLSVETPENDSQLSNISCSFQVSSKVPYEIQKGQALITFEKEEVAQNVVSMSKHHVQIKDVNLEVTAKPVPLNSGVRFQVYVEVSKMKINVTEIPDTLREDQMRDKLELSFSKSRNGGGEVDRVDYDRQSGSAVITFVEIGVADKILKKKEYPLYINQTCHRVTVSPYTEIHLKKYQIFSGTSKRTVLLTGMEGIQMDEEIVEDLINIHFQRAKNGGGEVDVVKCSLGQPHIAYFEE [NMI] | 0.127 | 55.4 | 55.7 | -1.52 | -4.03 | -0.0719
